This passage reports Kd results from article PMC5201196.

The target in this experiment is protein G´e (protein G prime e, extended). Nature of the experiment: MST.

Usually Kd stands for a measure of binding affinity in units of concentration. The substance IgG (antibody) gave a dissociation constant (Kd) of 9.4 nM.
